Literature values, collected in article PMC8438204, “Unraveling the Thermodynamics of Ultra-tight Binding of Intrinsically Disordered Proteins” (Frontiers in Molecular Biosciences, 2021).

Legend:
barnase-barstar = conditions: ref Frisch et al., 1997
Method: Supplement DataSheet1.docx, table 1: Table S1. Thermodynamic parameters and structural properties of the complexes. All parameters are reported at T = 25°C. | column: Thermodynamic parameters || Next, we examine how the binding energetics of HigA2_3-23-HigB2 compares to other ultra-high affinity complexes formed by globular proteins. These include well-known examples such as the barnase-barstar and the complexes between various immunity proteins and colicin-DNases ([Hartley, 1989]; [Keeble et al., 2006]). The overall Gibbs free energies of globular high affinity complexes (ΔG assoc about −19 kcal/mol) are approximately 3 kcal/mol more negative compared to HigA2_3–23-HigB2. Since no significant conformational changes occur upon formation of globular high affinity complexes in any of th ... || Nonetheless, a handful of examples of IDP binders with ultra-high affinity have been characterized to date.

[1] = tested on: E7-Im7 (colicin DNase - immunity protein); conditions: ref Keeble et al., 2006
Method: Supplement DataSheet1.docx, table 1: Table S1. Thermodynamic parameters and structural properties of the complexes. All parameters are reported at T = 25°C. | column: Thermodynamic parameters

CcdB2 = conditions: ref Drobnak et al., 2013
Method: Supplement DataSheet1.docx, table 1: Table S1. Thermodynamic parameters and structural properties of the complexes. All parameters are reported at T = 25°C. | column: Thermodynamic parameters || Nonetheless, a handful of examples of IDP binders with ultra-high affinity have been characterized to date. […] Complexes are ordered according to the degree of energy optimization as estimated by the ΔH bind/ASAint values. For the HigA2_3-23-HigB2 complex the degree of energy optimization is similar to one observed for the pairs of globular high affinity binders (Supplementary Table S1, Figure 3A). […] The high affinit ...

B1: barnase-barstar (protein, UniProt P00648 48-157; P11540 2-90, looked up)
Ribonuclease: AQVINTFDGVADYLQTYHKLPDNYITKSEAQALGWVASKGNLADVAPGKSIGGDIFSNREGKLPGKSGRTWREADINYTSGFRNSDRILYSSDWLIYKTTDHYQTFTKIR
Barstar: KKAVINGEQIRSISDLHQTLKKELALPEYYGENLDALWDCLTGWVEYPLVLEWRQFEQSKQLTENGAESVLQVFREAKAEGCDITIILS
-TΔS (barnase-barstar; 25°C): -0.1 kcal/mol | ΔG (barnase-barstar; 25°C): -19 kcal/mol | ΔCp (barnase-barstar): -0.36 ± 0.02 kcal mol^-1 K^-1

B2: E7-Im7 (protein, UniProt Q47112 1-576; Q03708 1-87, looked up)
Colicin-E7: MSGGDGRGHNSGAHNTGGNINGGPTGLGGNGGASDGSGWSSENNPWGGGSGSGVHWGGGSGHGNGGGNSNSGGGSNSSVAAPMAFGFPALAAPGAGTLGISVSGEALSAAIADIFAALKGPFKFSAWGIALYGILPSEIAKDDPNMMSKIVTSLPAETVTNVQVSTLPLDQATVSVTKRVTDVVKDTRQHIAVVAGVPMSVPVVNAKPTRTPGVFHASFPGVPSLTVSTVKGLPVSTTLPRGITEDKGRTAVPAGFTFGGGSHEAVIRFPKESGQKPVYVSVTDVLTPAQVKQRQDEEKRLQQEWNDAHPVEVAERNYEQARAELNQANKDVARNQERQAKAVQVYNSRKSELDAANKTLADAKAEIKQFERFAREPMAAGHRMWQMAGLKAQRAQTDVNNKKAAFDAAAKEKSDADVALSSALERRKQKENKEKDAKAKLDKESKRNKPGKATGKGKPVNNKWLNNAGKDLGSPVPDRIANKLRDKEFKSFDDFRKKFWEEVSKDPELSKQFSRNNNDRMKVGKAPKTRTQDVSGKRTSFELHHEKPISQNGGVYDMDNISVVTPKRHIDIHRGK
Colicin-E7 immunity protein: MELKNSISDYTEAEFVQLLKEIEKENVAATDDVLDVLLEHFVKITEHPDGTDLIYYPSDNRDDSPEGIVKEIKEWRAANGKPGFKQG
-TΔS ([1]; 25°C): 10.5 kcal/mol | ΔG ([1]; 25°C): -19.8 kcal/mol | ΔH ([1]; 25°C): -30.3 ± 0.8 kcal/mol | ΔCp [1]: -0.69 kcal mol^-1 K^-1

B3: CcdA (protein, UniProt P62552 1-72, looked up)
Antitoxin CcdA: MKQRITVTVDSDSYQLLKAYDVNISGLVSTTMQNEARRLRAERWKAENQEGMAEVARFIEMNGSFADENRDW
ΔG (association) (CcdB2; 25°C): -15.6 kcal/mol | Kd (CcdB2): 4 pM
